Assays:
[1] = target: recombinant Can f 4 (dog); assay: experimental rCan f 4 ImmunoCAP
[2] = target: IgE of Bos d 23k-reactive serum B; assay: ImmunoCAP IgE inhibition; serum preincubated with 100 µg/mL rCan f 4, Bos d 23k immobilized
[3] = target: IgE of Bos d 23k-reactive serum A; assay: as above
[4] = target: IgE of Bos d 23k-reactive serum C; assay: as above

| allergen specific IgE antibody [1] [kUA/L] | percent inhibition of IgE binding to Bos d 23k [2] [%] | percent inhibition of IgE binding to Bos d 23k [3] [%] | percent inhibition of IgE binding to Bos d 23k [4] [%] | Molecule |
| --- | --- | --- | --- | --- |
| 0.023 |  |  |  | myeloma IgE (antibody) |
|  | > 96 | > 96 | > 96 | recombinant Can f 4 (protein, not shown: small tags and cut ends, N-terminal Met; C-terminal His6 tag) QLPLPNVLTQVSGPWKTLYISSNNLDKIGDNGPFRIYMRGINVDIPRLKMSFNFYVKVDGECVENSVGASIGRDNLIKGEYNGGNYFRIIDMTPNALIGYDVNVDSKGKITKVALLMGRGAHVNEEDIAKFKKLSREKGIPEENIIYLGDTDNCPNHE |
